Values of other authors as cited in PMC5322387.

Assays:
E2 L2 L2 (Homo sapiens) [1] = target: E2 L2 L2 (Homo sapiens) (UniProt P10515); test: gel filtration
E2 L2 L2 (Homo sapiens) [2] = target: E2 L2 L2 (Homo sapiens) (UniProt P10515); test: ITC
[3] = target: E3BP L3 L3 (Homo sapiens) (UniProt O00330); test: ITC
Chain of E3BP L3 L3 (Homo sapiens) (O00330 56-132): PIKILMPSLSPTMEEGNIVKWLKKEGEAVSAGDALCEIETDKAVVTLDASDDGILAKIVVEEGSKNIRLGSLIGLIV

Chain of E2 L2 L2 (Homo sapiens) (P10515 218-294): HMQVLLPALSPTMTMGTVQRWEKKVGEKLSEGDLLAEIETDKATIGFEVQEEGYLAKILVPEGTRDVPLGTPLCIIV
Chain of PDK1 (Q15118 29-436): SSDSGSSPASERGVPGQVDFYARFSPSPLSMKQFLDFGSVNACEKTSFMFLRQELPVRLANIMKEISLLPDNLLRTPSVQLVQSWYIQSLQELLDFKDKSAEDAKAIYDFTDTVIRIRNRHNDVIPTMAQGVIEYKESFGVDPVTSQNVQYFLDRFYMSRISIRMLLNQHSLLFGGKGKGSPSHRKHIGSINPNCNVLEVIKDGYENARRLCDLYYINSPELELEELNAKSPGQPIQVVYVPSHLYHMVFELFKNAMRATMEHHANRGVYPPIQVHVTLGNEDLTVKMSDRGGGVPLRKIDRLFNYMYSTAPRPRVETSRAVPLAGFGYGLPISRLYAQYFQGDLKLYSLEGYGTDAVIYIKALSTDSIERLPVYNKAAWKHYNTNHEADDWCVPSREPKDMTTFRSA
Chain of PDK4 (Q16654 2-411): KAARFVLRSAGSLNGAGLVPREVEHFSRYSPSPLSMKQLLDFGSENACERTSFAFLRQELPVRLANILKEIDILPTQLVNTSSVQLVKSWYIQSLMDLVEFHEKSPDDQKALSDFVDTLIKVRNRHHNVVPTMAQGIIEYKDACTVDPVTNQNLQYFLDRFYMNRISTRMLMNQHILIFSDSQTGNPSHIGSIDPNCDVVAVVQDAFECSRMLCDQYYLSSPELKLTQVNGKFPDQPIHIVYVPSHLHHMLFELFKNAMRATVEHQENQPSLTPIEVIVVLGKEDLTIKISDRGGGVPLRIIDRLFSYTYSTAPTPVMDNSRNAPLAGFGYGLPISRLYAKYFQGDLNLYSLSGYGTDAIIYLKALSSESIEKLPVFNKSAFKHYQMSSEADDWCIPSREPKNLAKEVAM
Chain of PDK3 (Q15120 2-406): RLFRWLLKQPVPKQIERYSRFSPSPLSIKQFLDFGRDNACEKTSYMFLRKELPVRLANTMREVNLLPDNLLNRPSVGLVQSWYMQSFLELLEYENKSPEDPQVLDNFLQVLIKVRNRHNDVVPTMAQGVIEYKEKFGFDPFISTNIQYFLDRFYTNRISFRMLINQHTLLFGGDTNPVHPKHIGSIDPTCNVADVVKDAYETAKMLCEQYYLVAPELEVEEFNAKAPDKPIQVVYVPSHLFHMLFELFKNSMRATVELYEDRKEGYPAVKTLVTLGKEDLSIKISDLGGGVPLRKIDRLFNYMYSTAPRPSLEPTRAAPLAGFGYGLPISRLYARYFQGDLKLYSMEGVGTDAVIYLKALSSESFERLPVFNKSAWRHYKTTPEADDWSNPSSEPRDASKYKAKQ

For PDK1 (from UniProt Q15118), the Kd (E2 L2 L2 (Homo sapiens) [1]) is given as 10 µM.
In the case of PDK3 (from UniProt Q15120), the Kd (E2 L2 L2 (Homo sapiens) [2]) is listed as 1170 nM.
For PDK4 (from UniProt Q16654), the Kd [3] is listed as 5 µM.
